Test results reported in PMC2064543.

Biological target: adenomatous polyposis coli (APC), endogenous in Xenopus egg extracts (Xenopus laevis (endogenous in egg extracts)) (UniProt P70039)
Test: co-IP

UniProt P70039, sequence (P70039 whole entry): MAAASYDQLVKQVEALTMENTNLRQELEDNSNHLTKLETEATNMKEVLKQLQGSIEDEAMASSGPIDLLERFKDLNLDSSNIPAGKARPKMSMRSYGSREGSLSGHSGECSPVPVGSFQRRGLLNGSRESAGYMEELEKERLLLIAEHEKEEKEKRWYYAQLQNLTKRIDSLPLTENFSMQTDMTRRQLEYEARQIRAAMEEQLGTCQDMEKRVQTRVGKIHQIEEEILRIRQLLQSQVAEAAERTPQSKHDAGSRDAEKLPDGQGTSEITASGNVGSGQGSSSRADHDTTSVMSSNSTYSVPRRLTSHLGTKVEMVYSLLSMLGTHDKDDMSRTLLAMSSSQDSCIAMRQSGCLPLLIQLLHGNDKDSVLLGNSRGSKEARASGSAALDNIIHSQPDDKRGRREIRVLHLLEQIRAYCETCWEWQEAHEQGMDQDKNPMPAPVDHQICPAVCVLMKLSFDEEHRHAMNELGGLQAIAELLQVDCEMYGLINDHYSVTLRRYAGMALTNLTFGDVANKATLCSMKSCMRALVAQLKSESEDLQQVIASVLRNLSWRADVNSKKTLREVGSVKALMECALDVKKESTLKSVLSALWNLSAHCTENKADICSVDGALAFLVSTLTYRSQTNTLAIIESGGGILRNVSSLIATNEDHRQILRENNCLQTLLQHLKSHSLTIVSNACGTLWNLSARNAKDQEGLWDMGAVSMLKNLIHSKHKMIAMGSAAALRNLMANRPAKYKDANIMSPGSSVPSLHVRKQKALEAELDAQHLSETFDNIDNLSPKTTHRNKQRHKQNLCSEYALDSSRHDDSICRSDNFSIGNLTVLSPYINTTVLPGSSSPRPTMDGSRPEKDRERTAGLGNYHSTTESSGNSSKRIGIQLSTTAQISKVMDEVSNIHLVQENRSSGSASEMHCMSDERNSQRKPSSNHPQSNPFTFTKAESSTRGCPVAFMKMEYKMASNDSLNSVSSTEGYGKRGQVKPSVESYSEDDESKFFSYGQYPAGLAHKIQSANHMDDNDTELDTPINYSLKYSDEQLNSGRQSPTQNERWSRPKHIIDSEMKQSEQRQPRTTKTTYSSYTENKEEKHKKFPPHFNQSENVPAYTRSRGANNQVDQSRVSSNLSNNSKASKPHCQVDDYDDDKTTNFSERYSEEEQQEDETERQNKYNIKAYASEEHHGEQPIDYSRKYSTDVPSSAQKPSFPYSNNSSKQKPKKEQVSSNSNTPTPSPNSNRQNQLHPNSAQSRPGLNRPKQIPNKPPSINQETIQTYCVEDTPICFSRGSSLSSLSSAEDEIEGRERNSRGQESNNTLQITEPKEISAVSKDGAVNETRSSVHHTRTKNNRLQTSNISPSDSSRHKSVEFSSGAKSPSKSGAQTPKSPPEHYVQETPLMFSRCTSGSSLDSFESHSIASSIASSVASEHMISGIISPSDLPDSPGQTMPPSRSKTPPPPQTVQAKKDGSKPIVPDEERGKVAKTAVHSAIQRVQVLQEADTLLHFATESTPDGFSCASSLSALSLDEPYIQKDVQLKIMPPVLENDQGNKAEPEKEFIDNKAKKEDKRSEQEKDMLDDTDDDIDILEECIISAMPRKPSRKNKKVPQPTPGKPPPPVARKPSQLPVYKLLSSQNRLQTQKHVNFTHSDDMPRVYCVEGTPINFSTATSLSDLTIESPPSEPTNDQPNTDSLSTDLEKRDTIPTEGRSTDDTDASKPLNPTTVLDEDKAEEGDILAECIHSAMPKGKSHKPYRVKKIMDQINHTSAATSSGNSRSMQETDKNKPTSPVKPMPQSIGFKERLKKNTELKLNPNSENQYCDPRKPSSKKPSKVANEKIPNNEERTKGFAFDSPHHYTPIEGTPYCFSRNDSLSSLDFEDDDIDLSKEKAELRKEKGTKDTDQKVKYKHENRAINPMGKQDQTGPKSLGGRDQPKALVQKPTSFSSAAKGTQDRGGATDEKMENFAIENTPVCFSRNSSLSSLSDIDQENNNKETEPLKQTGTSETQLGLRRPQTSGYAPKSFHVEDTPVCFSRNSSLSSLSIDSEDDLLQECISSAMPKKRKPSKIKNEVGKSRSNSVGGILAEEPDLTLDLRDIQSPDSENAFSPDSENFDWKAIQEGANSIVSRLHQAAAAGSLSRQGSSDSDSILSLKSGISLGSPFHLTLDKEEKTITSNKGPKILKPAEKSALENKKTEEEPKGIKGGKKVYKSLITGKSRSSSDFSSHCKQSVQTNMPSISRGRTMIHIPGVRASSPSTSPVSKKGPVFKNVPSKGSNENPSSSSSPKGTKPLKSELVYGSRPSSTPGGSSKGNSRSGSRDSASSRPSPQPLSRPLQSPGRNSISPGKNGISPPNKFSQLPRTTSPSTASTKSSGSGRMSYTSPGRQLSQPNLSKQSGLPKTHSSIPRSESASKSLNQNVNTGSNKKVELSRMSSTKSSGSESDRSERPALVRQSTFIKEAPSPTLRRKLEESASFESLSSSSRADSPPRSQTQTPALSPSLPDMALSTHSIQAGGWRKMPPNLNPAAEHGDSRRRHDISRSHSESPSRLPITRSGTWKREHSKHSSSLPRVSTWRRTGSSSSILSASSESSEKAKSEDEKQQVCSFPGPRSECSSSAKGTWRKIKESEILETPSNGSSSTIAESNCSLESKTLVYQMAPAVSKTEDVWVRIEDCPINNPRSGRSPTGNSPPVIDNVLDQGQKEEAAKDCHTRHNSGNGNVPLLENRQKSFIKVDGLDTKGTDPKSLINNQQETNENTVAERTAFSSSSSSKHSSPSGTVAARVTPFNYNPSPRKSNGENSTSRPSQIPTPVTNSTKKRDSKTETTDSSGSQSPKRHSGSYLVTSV

percent less coimmunoprecipitated with APC than WT-BubR1: 40%
Substance: GST–KD-BubR1 (recombinant Xenopus kinase-dead BubR1) (from UniProt B7ZQ97 1-1041) (natural protein)
